From ChEMBL document CHEMBL5620400, “Design, synthesis, antiviral evaluation, and In silico studies of acrylamides targeting nsP2 from Chikungunya virus” (Eur J Med Chem, 2023)
Calls of active or inactive are those of the source. The calls are words filed in the database; no cut-off is given here.

Assays:
[1] = system: O=C(/C=C/c1ccc(Br)cc1)Nc1ccccc1; assay: (§1) Binding affinity to CHIKV nsP2 assessed as Km by measuring fluorescence by multimode microplate reader; details: Chikungunya virus
[2] = system: O=C(/C=C/c1ccc(Cl)cc1Cl)Nc1ccccc1; assay: as §1; details: Chikungunya virus
[3] = system: O=C(/C=C/c1ccc(C(F)(F)F)cc1)Nc1ccccc1; assay: as §1; details: Chikungunya virus
[4] = system: COc1ccccc1/C=C/C(=O)Nc1ccccc1; assay: as §1; details: Chikungunya virus
[5] = system: O=C(/C=C/c1ccc(Br)cc1)Nc1ccccc1; assay: (§2) Binding affinity to CHIKV nsP2 assessed as Vmax (at tested concentration) by measuring fluorescence by Lineweaver-Burk plot; details: Chikungunya virus
[6] = system: O=C(/C=C/c1ccc(Cl)cc1Cl)Nc1ccccc1; assay: as §2; details: Chikungunya virus
[7] = system: O=C(/C=C/c1ccc(C(F)(F)F)cc1)Nc1ccccc1; assay: as §2; details: Chikungunya virus
[8] = system: COc1ccccc1/C=C/C(=O)Nc1ccccc1; assay: as §2; details: Chikungunya virus
[9] = system: O=C(/C=C/c1ccc(Br)cc1)Nc1ccccc1; assay: (§3) Binding affinity to CHIKV nsP2 assessed as Vmax (at I = 0) by measuring fluorescence by Lineweaver-Burk plot; details: Chikungunya virus
[10] = system: O=C(/C=C/c1ccc(Cl)cc1Cl)Nc1ccccc1; assay: as §3; details: Chikungunya virus
[11] = system: O=C(/C=C/c1ccc(C(F)(F)F)cc1)Nc1ccccc1; assay: as §3; details: Chikungunya virus
[12] = system: COc1ccccc1/C=C/C(=O)Nc1ccccc1; assay: as §3; details: Chikungunya virus
Sindbis virus = assay: Antiviral activity against SINV infected african green monkey Vero cells assessed as inhibition of virus induced cytopathic effect at 100 uM measured after 48 hrs by microscopic imaging analysis; format: functional, organism-based

## Polyprotein P1234 (Chikungunya virus (strain S27-African prototype) (CHIKV)), Q8JUX6
[1]
  Km: 5.4 µM
[2]
  Km: 3.5 µM
[3]
  Km: 9.7 µM
[4]
  Km: 4.9 µM
[5]
  Vmax: 0.87
[6]
  Vmax: 0.83
[7]
  Vmax: 1.58
[8]
  Vmax: 0.71
[9]
  Vmax: 0.73
[10]
  Vmax: 0.84
[11]
  Vmax: 1.57
[12]
  Vmax: 0.76

## O=C(/C=C/c1ccc(Br)cc1)Nc1ccccc1
Sindbis virus
  Activity: Active

## COc1ccccc1/C=C/C(=O)Nc1ccccc1
Sindbis virus
  Activity: Active

## O=C(/C=C/c1ccc(C(F)(F)F)cc1)Nc1ccccc1
Sindbis virus
  Activity: Active

## O=C(/C=C/c1ccc(Cl)cc1Cl)Nc1ccccc1
Sindbis virus
  Activity: Active
